Data on 9 molecules can be found in patent publication US20120225055A1 (GlaxoSmithKline, published 2012).

The target of experiment [1] is T1, human serum amyloid P component (SAP), purified (Homo sapiens, UniProt P02743 20-223).
T1 construct: Immobilised directly, amine-coupled, captured on O-phosphoethanolamine or by sheep polyclonal antibody, depending on the assay; also called human SAP; native human SAP
As to the kind of experiment: direct ELISA, human SAP coated at 1 µg/mL, detection with HRP rabbit anti-mouse IgG. On the procedure: (§1) 1 μg/mL or 5 μg/mL human SAP was directly immobilised onto an ELISA plate and blocked with 1% BSA/TBS plus 0.05% TWEEN20. Anti-SAP antibodies from purified material were titrated across the plate. Bound antibody was detected by treatment with a horse-radish peroxidase (HRP)-conjugated rabbit-anti-mouse IgG antibody (Dako, P0260). The ELISA was developed using O-phenylenediamine dihydrochloride (OPD) peroxidase substrate (Sigma, P9187).
(In an ELISA, binding on a coated surface is turned into a signal by an enzyme label.)

Experiment [2] addresses T1, human serum amyloid P component (SAP), …. In words: direct ELISA, human SAP coated at 5 µg/mL, detection with HRP rabbit anti-mouse IgG. The protocol: as §1
Experiment [3] has the same target. In words: Biacore (BIAcoreX), human SAP covalently immobilised on the chip; mean and SD of 3 replicates. On the technique in general: In SPR one partner is held on a chip, and binding of the other changes the refractive index at the surface.
For experiment [4] the target is unchanged. In words: Biacore, human SAP captured on immobilised O-phosphoethanolamine (CM5 chip, calcium), bivalent analyte model. On the procedure:
(§2) O-phosphoethanolamine was immobilised on a Biacore CM5 chip by primary amine coupling in accordance with the manufacturer's instructions. Human SAP was then captured on the surface in the presence of calcium chloride, in order to replicate in the Biacore system in vitro, the precise orientation of SAP molecules bound to amyloid fibrils in vivo. Anti SAP antibodies were then passed over this surface at 256, 64, 16, 4, 1 nM and a binding sensorgrams obtained. Analysis was carried out at 25° C. using 4% BSA, 10 mM Tris, 140 mM NaCl, 2 mM CaCl₂, 0.05% surfactant P20, 0.02% Na N₃, pH 8.0 as running buffer. […] Data generated were double referenced with a buffer injection over the human SAP surface and analyzed using the bivalent analyte model in the Biacore T100 evaluation software.

Experiment [5] has the same target. In words: ELISA, 1 ug/mL human SAP directly immobilised. On the procedure: (§3) 1 μg/mL human SAP was directly immobilised onto an ELISA plate and blocked with 1% BSA/TBS plus 0.05% TWEEN20. Anti-SAP antibodies from the test supernatants or purified material were titrated across the plate. Bound antibody was detected by treatment with goat anti-human Kappa Light Chains peroxidase conjugate (Sigma, A7164). The ELISA was developed using O-phenylenediamine dihydrochloride (OPD) peroxidase substrate (Sigma, P9187).

Experiment [6] has the same target. As to the kind of experiment: Biacore, human SAP amine-coupled on CM3 chip, bivalent analyte model. On the procedure: Human SAP was immobilised on a Biacore CM3 chip by primary amine coupling in accordance with the manufacturer's instructions. […] All runs were double referenced with a buffer injection over the human SAP surface. Analysis was carried out at 25° C. using HBS-EP buffer.

Experiment [7] shares this target. In words: Biacore, human SAP amine-coupled on C1 chip, culture supernatant, 1 to 1 dissociation model, single curve. On the procedure: Human and cynomologus monkey SAP were immobilised on a Biacore C1 chip by primary amine coupling in accordance with the manufacturer's instructions. […] All runs were double referenced with a buffer injection for purified sample or media for the supernatant samples over the human and cyno SAP surfaces. Analysis was carried out at 25° C. using HBS-EP buffer. […] Data were analysed using the 1 to 1 dissociation model within the Biacore T100 evaluation software.
The values were based on a single curve and used for ranking purposes between the different constructs for binding to human SAP.
Target sequence in this assay (P02743 20-223): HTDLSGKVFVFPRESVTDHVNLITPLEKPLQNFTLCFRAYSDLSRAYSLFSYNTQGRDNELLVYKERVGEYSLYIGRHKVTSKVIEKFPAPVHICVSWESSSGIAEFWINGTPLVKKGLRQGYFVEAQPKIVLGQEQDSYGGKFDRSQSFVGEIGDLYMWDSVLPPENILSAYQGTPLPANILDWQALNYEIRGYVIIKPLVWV

The target is the same in experiment [8]. In words: direct ELISA, human SAP coated at 1 µg/mL, detection with goat anti-human kappa light chain peroxidase conjugate. On the procedure:
as §3

The target is the same in experiment [9]. As to the kind of experiment: binding ELISA and Biacore off-rate ranking.
For experiment [10] the target is unchanged. As to the kind of experiment: Biacore kinetics, human SAP captured on immobilised O-phosphoethanolamine; alanine at position 91 of L0, not wild-type H3L0. The protocol:
as §2

B1: SAP-K mouse monoclonal anti-human SAP antibody (antibody, mouse IgG2a, V domains shown)
VH: QVQLQQPGAELIKPGASVKLSCKASGYTFTSYWMHWVKQRPGQGLEWIGMIHPNSVNTNYNEKFKSKATLTVDKSSSTAYMQLNSLTSEDSAVYYCARRNDYYWYFDVWGTGTTVTVSS
VL: DIVMTQSQKFMSTSVGDRVSVTCKASQNVNSNVAWYQQKPGQSPKALIYSASYRYSGVPDRFTGSGSGTDFTLTITNVQSEDLAEYFCQQCNNYPFTFGSGTKLEIK
notes: also called Mouse SAP-K; murine SAP-K
Usually EC50 (read off the curve) stands for the midpoint of the concentration-response curve. A word on the koff: it is the rate constant with which the complex falls apart. As usually defined, the kon is the second-order rate constant of association. Turning to B1, the concentration for a half-maximal effect (EC50 (read off the curve)) was around 0.04 µg/mL in experiment [1] and around 0.02 µg/mL in experiment [2]. In addition, the figures for the Kd in experiment [3] and in experiment [4] were 1 nM and 0.73 nM, respectively. Besides, the koff in experiment [3] was determined as 1.7e-05 s⁻¹; in experiment [4] it was 0.000219 s⁻¹. The kon in [3] came out at 31800 M⁻¹ s⁻¹; in experiment [4], 300000 M⁻¹ s⁻¹.

B2: SAP-K H1L0 humanised antibody (antibody, V domains shown)
VH: QVQLVQSGAEVKKPGSSVKVSCKASGYTFTSYWMHWVRQAPGQGLEWMGMIHPNSVNTNYNEKFKSRVTITADKSTSTAYMELSSLRSEDTAVYYCARRNDYYWYFDVWGQGTLVTVSS
VL: DIQMTQSPSSLSASVGDRVTITCKASQNVNSNVAWYQQKPGKAPKLLIYSASYRYSGVPSRFSGSGSGTDFTLTISSLQPEDFATYYCQQCNNYPFTFGQGTKLEIK
Turning to B2, the “fold loss of human SAP binding activity compared to the SAP-K chimera” value (“fold loss of human SAP binding activity” below) in [5] was around 2 fold. In experiment [6], this molecule yielded a Kd of 155 nM, an off-rate (koff) of 0.0178 s⁻¹ and a kon of 115000 M⁻¹ s⁻¹. In addition, the koff in experiment [7] was found to be 0.0171 s⁻¹. Also, the half-maximal effective concentration (EC50 (read off the curve)) in experiment [8] is around 0.1 µg/mL.

B3: SAP-K H0L0 humanised antibody (antibody, V domains shown)
VH: QVQLVQSGAEVKKPGSSVKVSCKASGGTFSSYWMHWVRQAPGQGLEWMGMIHPNSVNTNYNEKFKSRVTITADKSTSTAYMELSSLRSEDTAVYYCARRNDYYWYFDVWGQGTLVTVSS
VL: DIQMTQSPSSLSASVGDRVTITCKASQNVNSNVAWYQQKPGKAPKLLIYSASYRYSGVPSRFSGSGSGTDFTLTISSLQPEDFATYYCQQCNNYPFTFGQGTKLEIK
With B3, in experiment [5], the “fold loss of human SAP binding activity” value was around 2 fold. Moreover, in experiment [6], the Kd stood at 739 nM, the koff amounted to 0.0449 s⁻¹ and the kon is 60800 M⁻¹ s⁻¹. For the same molecule, in [7], the koff worked out at 0.0263 s⁻¹.

B4: SAP-K H3L1 humanised antibody (antibody, V domains shown)
VH: QVQLVQSGAEVKKPGSSVKVSCKASGYTFTSYWMHWVRQAPGQGLEWIGMIHPNSVNTNYNEKFKSRATLTVDKSTSTAYMELSSLRSEDTAVYYCARRNDYYWYFDVWGQGTLVTVSS
VL: DIQMTQSPSSLSASVGDRVTITCKASQNVNSNVAWYQQKPGKAPKALIYSASYRYSGVPSRFSGSGSGTDFTLTISSLQPEDFATYYCQQCNNYPFTFGQGTKLEIK
B4 had an off-rate constant (koff) in experiment [7] of 0.0236 s⁻¹.

B5: SAP-K H2L0 humanised antibody (antibody, V domains shown)
VH: QVQLVQSGAEVKKPGSSVKVSCKASGYTFTSYWMHWVRQAPGQGLEWIGMIHPNSVNTNYNEKFKSRATITADKSTSTAYMELSSLRSEDTAVYYCARRNDYYWYFDVWGQGTLVTVSS
VL: DIQMTQSPSSLSASVGDRVTITCKASQNVNSNVAWYQQKPGKAPKLLIYSASYRYSGVPSRFSGSGSGTDFTLTISSLQPEDFATYYCQQCNNYPFTFGQGTKLEIK
Regarding B5, the “fold loss of human SAP binding activity” value in experiment [5] is around 2 fold. In experiment [6], this molecule showed a Kd of 191 nM, a koff of 0.022 s⁻¹ and an on-rate (kon) of 115000 M⁻¹ s⁻¹. In addition, in experiment [7], the koff worked out at 0.0204 s⁻¹.

B6: SAP-K H1 with L0 91A humanised light chain variant (antibody, human IgG1, V domains shown)
VH: QVQLVQSGAEVKKPGSSVKVSCKASGYTFTSYWMHWVRQAPGQGLEWMGMIHPNSVNTNYNEKFKSRVTITADKSTSTAYMELSSLRSEDTAVYYCARRNDYYWYFDVWGQGTLVTVSS
VL: DIQMTQSPSSLSASVGDRVTITCKASQNVNSNVAWYQQKPGKAPKLLIYSASYRYSGVPSRFSGSGSGTDFTLTISSLQPEDFATYYCQQANNYPFTFGQGTKLEIK
notes: Human IgG1/kappa; also called alanine variant paired with H1
B6: the binding result in [9] is “binds”.

B7: SAP-K H2L1 humanised antibody (antibody, V domains shown)
VH: QVQLVQSGAEVKKPGSSVKVSCKASGYTFTSYWMHWVRQAPGQGLEWIGMIHPNSVNTNYNEKFKSRATITADKSTSTAYMELSSLRSEDTAVYYCARRNDYYWYFDVWGQGTLVTVSS
VL: DIQMTQSPSSLSASVGDRVTITCKASQNVNSNVAWYQQKPGKAPKALIYSASYRYSGVPSRFSGSGSGTDFTLTISSLQPEDFATYYCQQCNNYPFTFGQGTKLEIK
The molecule B7 showed a koff in [7] of 0.0321 s⁻¹.

B8: SAP-K H3 with L0 91A humanised light chain variant (antibody, human IgG1, V domains shown)
VH: QVQLVQSGAEVKKPGSSVKVSCKASGYTFTSYWMHWVRQAPGQGLEWIGMIHPNSVNTNYNEKFKSRATLTVDKSTSTAYMELSSLRSEDTAVYYCARRNDYYWYFDVWGQGTLVTVSS
VL: DIQMTQSPSSLSASVGDRVTITCKASQNVNSNVAWYQQKPGKAPKLLIYSASYRYSGVPSRFSGSGSGTDFTLTISSLQPEDFATYYCQQANNYPFTFGQGTKLEIK
notes: Human IgG1/kappa; also called variant with alanine at position 91
In the case of B8, in experiment [10], the Kd amounted to 0.436 nM.

B9: SAP-K H1L1 humanised antibody (antibody, V domains shown)
VH: QVQLVQSGAEVKKPGSSVKVSCKASGYTFTSYWMHWVRQAPGQGLEWMGMIHPNSVNTNYNEKFKSRVTITADKSTSTAYMELSSLRSEDTAVYYCARRNDYYWYFDVWGQGTLVTVSS
VL: DIQMTQSPSSLSASVGDRVTITCKASQNVNSNVAWYQQKPGKAPKALIYSASYRYSGVPSRFSGSGSGTDFTLTISSLQPEDFATYYCQQCNNYPFTFGQGTKLEIK
As to B9, in [7], the koff amounted to 0.0296 s⁻¹.
